Measurements reported in PMC6891902, “GLTSCR1 Negatively Regulates BRD4‐Dependent Transcription Elongation and Inhibits CRC Metastasis” (Advanced Science, 2019).

Target: T1, His-tagged BRD4 (1-470, BDs domain) (UniProt O60885 1-470)
T1 construct: BRD4, BDs domain (BD1 + BD2), aa 1-470; also called His-BRD4 (BD1 + BD2); pET-28a-His-BRD4 (1-470)
Assay: pull-down; GST pull-down; purified GST-GLTSCR1 (1161-1361) incubated with purified His-tagged BRD4 fragment at 4 °C overnight; beads washed three times in lysis buffer (0.5% Triton-X100, 50 mM NaH2PO4, 300 mM NaCl); immunoblot
Conditions: both partners purified

B1: GST-GLTSCR1 (aa 1161-1361), BRD4 binding domain (BB domain) (domain or fragment, human, UniProt Q9NZM4 1161-1361, looked up)
chain: EESRRVSPSAEMVMIDRMFIQEEKTTLALDKQLAKEKPDEYVSSSRSLGLPIAASSEGHRLPGHGPLSSSAPGASTQPPPHLPTKLVIRHGGAGGSPSVTWARASSSLSSSSSSSSAASSLDADEDGPMPSRNRPPIKTYEARSRIGLKLKIKQEAGLSKVVHNTALDPVHQPPPPPATLKVAEPPPRPPPPPPPTGQMNG
notes: also called GST-tagged GLTSCR1 BB domain; source: E. coli BL21, purified (glutathione agarose beads)
  binding result: binds
